Data taken from article PMC5627591.
Like-named read-outs stand apart in the source and are kept apart here.

How the values were obtained:
Assay in all cases: BLI
[1] = molecular target: human IgG1 Fc-YEY variant (M252Y/N286E/N434Y) of the pH-dependent mAbs (human)
[2] = molecular target: human IgG1 Fc-YTE variant (M252Y/S254T/T256E) of the pH-dependent mAbs (human)
[3] = molecular target: human IgG1 Fc-YPY variant (M252Y/V308P/N434Y) of the pH-dependent mAbs (human)
[4] = molecular target: human IgG1 Fc-YEY variant (M252Y/N286E/N434Y) of the pH-dependent mAbs (human); remark: listed apart in the source
[5] = molecular target: human IgG1 wild-type (WT) Fc variant of the pH-dependent mAbs (human)
[6] = molecular target: human IgG1 Fc-YTE variant (M252Y/S254T/T256E) of the pH-dependent mAbs (human); remark: listed apart in the source
[7] = molecular target: human IgG1 Fc-YPY variant (M252Y/V308P/N434Y) of the pH-dependent mAbs (human); remark: listed apart in the source
[8] = molecular target: human IgG1 wild-type (WT) Fc variant of the pH-dependent mAbs (human); remark: listed apart in the source

Row | Kd [1] | Kd [2] | Kd [3] | Kd [4] | Kd [5] | Kd [6] | Kd [7] | Kd [8] | Substance
1 | 66 nM | 1110 nM | 28 nM | 4.3 nM | 853 nM | 76 nM | 2.2 nM |  | cyno FcRn (cynomolgus monkey neonatal Fc receptor) (from UniProt Q8SPV9 24-365)
2 | 22 nM | 760 nM | 14 nM | 3.1 nM | 185 nM | 30 nM | 1.6 nM | > 10000 nM | human FcRn (human neonatal Fc receptor) (from UniProt P55899 24-365)
